Measurements from patent US20250171562A1.

Molecular target: mixture of three Der p 2 specific recombinant human IgE clones H10, H12, P4E (human) (UniProt P01854)
Assay: RBL-SX38 IgE displacement, FACS

Sequence of mixture of three Der p 2 specific recombinant human IgE clones H10, H12, P4E (human) (P01854 other isoform, or with tags, fused parts or gaps): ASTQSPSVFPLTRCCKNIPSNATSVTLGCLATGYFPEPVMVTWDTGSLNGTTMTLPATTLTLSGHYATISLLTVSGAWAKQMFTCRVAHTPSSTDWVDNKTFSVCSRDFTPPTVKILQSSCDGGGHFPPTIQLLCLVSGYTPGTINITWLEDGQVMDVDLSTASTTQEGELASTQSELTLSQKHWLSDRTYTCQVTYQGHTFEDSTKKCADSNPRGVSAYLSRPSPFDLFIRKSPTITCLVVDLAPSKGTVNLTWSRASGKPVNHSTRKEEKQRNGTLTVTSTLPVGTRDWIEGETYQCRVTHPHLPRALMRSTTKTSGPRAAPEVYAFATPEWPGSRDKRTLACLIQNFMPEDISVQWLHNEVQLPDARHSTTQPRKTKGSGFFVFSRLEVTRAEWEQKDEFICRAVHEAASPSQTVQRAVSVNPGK

Row | Binder | EC50 | Max effect/effect 1 µM
1 | CIgG4B1A2(G4S)2 (Fc fusion) chain 1: GPPCPPCPAPEFLGGPSVFLFPPKPKDTLMISRTPEVTCVVVDVSQEDPEVQFNWYVDGVEVHNAKTKPREEQFNSTYRVVSVLTVLHQDWLNGKEYKCKVSNKGLPSSIEKTISKAKGQPREPQVYTLPPCQEEMTKNQVSLWCLVKGFYPSDIAVEWESNGQPENNYKTTPPVLDSDGSFFLYSRLTVDKSRWQEGNVFSCSVMHEALHNHYTQKSLSLSLGKGGGGSGGGGSQVQLQESGGGLVQTGGSLRLSCAVHGRTFSNTGMGWFRQAPGNERQFVAIISPSGTSTYYADSVKGRFTISRDPAKNTVYLQMNSLKMDDTAVYYCAASYGSNWSTLRHQRRNEYDAWGQGTQVAVS chain 2: GPPCPPCPAPEFLGGPSVFLFPPKPKDTLMISRTPEVTCVVVDVSQEDPEVQFNWYVDGVEVHNAKTKPREEQFNSTYRVVSVLTVLHQDWLNGKEYKCKVSNKGLPSSIEKTISKAKGQPREPQVCTLPPSQEEMTKNQVSLSCAVKGFYPSDIAVEWESNGQPENNYKTTPPVLDSDGSFFLVSRLTVDKSRWQEGNVFSCSVMHEALHNHYTQKSLSLSLGKGGGGSGGGGSEVQLLESGGGLVQPGGSLRLSCAASGFRFGNYDMAWVRQAPGKRYEWVSSIDTGGDITHYADSVKGRFTISRDNAKNTLYLQMNSLRPEDTAEYWCATDEEYALGPNEFDYYGQGTLVTVS | 6100 pM | 100%
2 | NIgG4B1A2(G4S)1 (Fc fusion) chain 1: QVQLQESGGGLVQTGGSLRLSCAVHGRTFSNTGMGWFRQAPGNERQFVAIISPSGTSTYYADSVKGRFTISRDPAKNTVYLQMNSLKMDDTAVYYCAASYGSNWSTLRHQRRNEYDAWGQGTQVAVSGGGGSGPPCPPCPAPEFLGGPSVFLFPPKPKDTLMISRTPEVTCVVVDVSQEDPEVQFNWYVDGVEVHNAKTKPREEQFNSTYRVVSVLTVLHQDWLNGKEYKCKVSNKGLPSSIEKTISKAKGQPREPQVYTLPPCQEEMTKNQVSLWCLVKGFYPSDIAVEWESNGQPENNYKTTPPVLDSDGSFFLYSRLTVDKSRWQEGNVFSCSVMHEALHNHYTQKSLSLSLGK chain 2: EVQLLESGGGLVQPGGSLRLSCAASGFRFGNYDMAWVRQAPGKRYEWVSSIDTGGDITHYADSVKGRFTISRDNAKNTLYLQMNSLRPEDTAEYWCATDEEYALGPNEFDYYGQGTLVTVSGGGGSGPPCPPCPAPEFLGGPSVFLFPPKPKDTLMISRTPEVTCVVVDVSQEDPEVQFNWYVDGVEVHNAKTKPREEQFNSTYRVVSVLTVLHQDWLNGKEYKCKVSNKGLPSSIEKTISKAKGQPREPQVCTLPPSQEEMTKNQVSLSCAVKGFYPSDIAVEWESNGQPENNYKTTPPVLDSDGSFFLVSRLTVDKSRWQEGNVFSCSVMHEALHNHYTQKSLSLSLGK | 400 pM | 100%
3 | CIgG4B1A2(RS) (Fc fusion) chain 1: GPPCPPCPAPEFLGGPSVFLFPPKPKDTLMISRTPEVTCVVVDVSQEDPEVQFNWYVDGVEVHNAKTKPREEQFNSTYRVVSVLTVLHQDWLNGKEYKCKVSNKGLPSSIEKTISKAKGQPREPQVYTLPPCQEEMTKNQVSLWCLVKGFYPSDIAVEWESNGQPENNYKTTPPVLDSDGSFFLYSRLTVDKSRWQEGNVFSCSVMHEALHNHYTQKSLSLSLGKRSQVQLQESGGGLVQTGGSLRLSCAVHGRTFSNTGMGWFRQAPGNERQFVAIISPSGTSTYYADSVKGRFTISRDPAKNTVYLQMNSLKMDDTAVYYCAASYGSNWSTLRHQRRNEYDAWGQGTQVAVS chain 2: GPPCPPCPAPEFLGGPSVFLFPPKPKDTLMISRTPEVTCVVVDVSQEDPEVQFNWYVDGVEVHNAKTKPREEQFNSTYRVVSVLTVLHQDWLNGKEYKCKVSNKGLPSSIEKTISKAKGQPREPQVCTLPPSQEEMTKNQVSLSCAVKGFYPSDIAVEWESNGQPENNYKTTPPVLDSDGSFFLVSRLTVDKSRWQEGNVFSCSVMHEALHNHYTQKSLSLSLGKRSEVQLLESGGGLVQPGGSLRLSCAASGFRFGNYDMAWVRQAPGKRYEWVSSIDTGGDITHYADSVKGRFTISRDNAKNTLYLQMNSLRPEDTAEYWCATDEEYALGPNEFDYYGQGTLVTVS | 11900 pM | 99%
4 | NIgG4B1A2(G4S)3 (Fc fusion) chain 1: QVQLQESGGGLVQTGGSLRLSCAVHGRTFSNTGMGWFRQAPGNERQFVAIISPSGTSTYYADSVKGRFTISRDPAKNTVYLQMNSLKMDDTAVYYCAASYGSNWSTLRHQRRNEYDAWGQGTQVAVSGGGGSGGGGSGGGGSGPPCPPCPAPEFLGGPSVFLFPPKPKDTLMISRTPEVTCVVVDVSQEDPEVQFNWYVDGVEVHNAKTKPREEQFNSTYRVVSVLTVLHQDWLNGKEYKCKVSNKGLPSSIEKTISKAKGQPREPQVYTLPPCQEEMTKNQVSLWCLVKGFYPSDIAVEWESNGQPENNYKTTPPVLDSDGSFFLYSRLTVDKSRWQEGNVFSCSVMHEALHNHYTQKSLSLSLGK chain 2: EVQLLESGGGLVQPGGSLRLSCAASGFRFGNYDMAWVRQAPGKRYEWVSSIDTGGDITHYADSVKGRFTISRDNAKNTLYLQMNSLRPEDTAEYWCATDEEYALGPNEFDYYGQGTLVTVSGGGGSGGGGSGGGGSGPPCPPCPAPEFLGGPSVFLFPPKPKDTLMISRTPEVTCVVVDVSQEDPEVQFNWYVDGVEVHNAKTKPREEQFNSTYRVVSVLTVLHQDWLNGKEYKCKVSNKGLPSSIEKTISKAKGQPREPQVCTLPPSQEEMTKNQVSLSCAVKGFYPSDIAVEWESNGQPENNYKTTPPVLDSDGSFFLVSRLTVDKSRWQEGNVFSCSVMHEALHNHYTQKSLSLSLGK | 500 pM | 100%
5 | NIgG4B1A2(RS) (Fc fusion) chain 1: QVQLQESGGGLVQTGGSLRLSCAVHGRTFSNTGMGWFRQAPGNERQFVAIISPSGTSTYYADSVKGRFTISRDPAKNTVYLQMNSLKMDDTAVYYCAASYGSNWSTLRHQRRNEYDAWGQGTQVAVSRSGPPCPPCPAPEFLGGPSVFLFPPKPKDTLMISRTPEVTCVVVDVSQEDPEVQFNWYVDGVEVHNAKTKPREEQFNSTYRVVSVLTVLHQDWLNGKEYKCKVSNKGLPSSIEKTISKAKGQPREPQVYTLPPCQEEMTKNQVSLWCLVKGFYPSDIAVEWESNGQPENNYKTTPPVLDSDGSFFLYSRLTVDKSRWQEGNVFSCSVMHEALHNHYTQKSLSLSLGK chain 2: EVQLLESGGGLVQPGGSLRLSCAASGFRFGNYDMAWVRQAPGKRYEWVSSIDTGGDITHYADSVKGRFTISRDNAKNTLYLQMNSLRPEDTAEYWCATDEEYALGPNEFDYYGQGTLVTVSRSGPPCPPCPAPEFLGGPSVFLFPPKPKDTLMISRTPEVTCVVVDVSQEDPEVQFNWYVDGVEVHNAKTKPREEQFNSTYRVVSVLTVLHQDWLNGKEYKCKVSNKGLPSSIEKTISKAKGQPREPQVCTLPPSQEEMTKNQVSLSCAVKGFYPSDIAVEWESNGQPENNYKTTPPVLDSDGSFFLVSRLTVDKSRWQEGNVFSCSVMHEALHNHYTQKSLSLSLGK | 600 pM | 99%
6 | CIgG4B1A2(G4S)1 (Fc fusion) chain 1: GPPCPPCPAPEFLGGPSVFLFPPKPKDTLMISRTPEVTCVVVDVSQEDPEVQFNWYVDGVEVHNAKTKPREEQFNSTYRVVSVLTVLHQDWLNGKEYKCKVSNKGLPSSIEKTISKAKGQPREPQVYTLPPCQEEMTKNQVSLWCLVKGFYPSDIAVEWESNGQPENNYKTTPPVLDSDGSFFLYSRLTVDKSRWQEGNVFSCSVMHEALHNHYTQKSLSLSLGKGGGGSQVQLQESGGGLVQTGGSLRLSCAVHGRTFSNTGMGWFRQAPGNERQFVAIISPSGTSTYYADSVKGRFTISRDPAKNTVYLQMNSLKMDDTAVYYCAASYGSNWSTLRHQRRNEYDAWGQGTQVAVS chain 2: GPPCPPCPAPEFLGGPSVFLFPPKPKDTLMISRTPEVTCVVVDVSQEDPEVQFNWYVDGVEVHNAKTKPREEQFNSTYRVVSVLTVLHQDWLNGKEYKCKVSNKGLPSSIEKTISKAKGQPREPQVCTLPPSQEEMTKNQVSLSCAVKGFYPSDIAVEWESNGQPENNYKTTPPVLDSDGSFFLVSRLTVDKSRWQEGNVFSCSVMHEALHNHYTQKSLSLSLGKGGGGSEVQLLESGGGLVQPGGSLRLSCAASGFRFGNYDMAWVRQAPGKRYEWVSSIDTGGDITHYADSVKGRFTISRDNAKNTLYLQMNSLRPEDTAEYWCATDEEYALGPNEFDYYGQGTLVTVS | 8100 pM | 100%
7 | NIgG4B3A1(G4S)3 (Fc fusion) chain 1: DVQLQESGGGLVQAGGSLRLSCAASGFIFRLAGMSWVRQAPGKGFEWVSGITMDGSTTNYADSVKGRFTISRDNSKNRLYLQMNSLKPEDTAVYYCARGAKGGYNDPRGQGTQVTVSGGGGSGGGGSGGGGSGPPCPPCPAPEFLGGPSVFLFPPKPKDTLMISRTPEVTCVVVDVSQEDPEVQFNWYVDGVEVHNAKTKPREEQFNSTYRVVSVLTVLHQDWLNGKEYKCKVSNKGLPSSIEKTISKAKGQPREPQVYTLPPCQEEMTKNQVSLWCLVKGFYPSDIAVEWESNGQPENNYKTTPPVLDSDGSFFLYSRLTVDKSRWQEGNVFSCSVMHEALHNHYTQKSLSLSLGK chain 2: EVQLLESGGGLVQPGGSLRLSCAASGFTFGNYDMAWVRQAPGKRPEWVSSIDTGGDITHYADSVKGRFTISRDNAKNTLYLQMNSLRPEDTAVYWCATDEEYALGPNEFDYYGQGTLVTVSSGGGGSGGGGSGGGGSGPPCPPCPAPEFLGGPSVFLFPPKPKDTLMISRTPEVTCVVVDVSQEDPEVQFNWYVDGVEVHNAKTKPREEQFNSTYRVVSVLTVLHQDWLNGKEYKCKVSNKGLPSSIEKTISKAKGQPREPQVCTLPPSQEEMTKNQVSLSCAVKGFYPSDIAVEWESNGQPENNYKTTPPVLDSDGSFFLVSRLTVDKSRWQEGNVFSCSVMHEALHNHYTQKSLSLSLGK |  | 93%
8 | NIgG4B1A2(G4S)2 (Fc fusion) chain 1: QVQLQESGGGLVQTGGSLRLSCAVHGRTFSNTGMGWFRQAPGNERQFVAIISPSGTSTYYADSVKGRFTISRDPAKNTVYLQMNSLKMDDTAVYYCAASYGSNWSTLRHQRRNEYDAWGQGTQVAVSGGGGSGGGGSGPPCPPCPAPEFLGGPSVFLFPPKPKDTLMISRTPEVTCVVVDVSQEDPEVQFNWYVDGVEVHNAKTKPREEQFNSTYRVVSVLTVLHQDWLNGKEYKCKVSNKGLPSSIEKTISKAKGQPREPQVYTLPPCQEEMTKNQVSLWCLVKGFYPSDIAVEWESNGQPENNYKTTPPVLDSDGSFFLYSRLTVDKSRWQEGNVFSCSVMHEALHNHYTQKSLSLSLGK chain 2: EVQLLESGGGLVQPGGSLRLSCAASGFRFGNYDMAWVRQAPGKRYEWVSSIDTGGDITHYADSVKGRFTISRDNAKNTLYLQMNSLRPEDTAEYWCATDEEYALGPNEFDYYGQGTLVTVSGGGGSGGGGSGPPCPPCPAPEFLGGPSVFLFPPKPKDTLMISRTPEVTCVVVDVSQEDPEVQFNWYVDGVEVHNAKTKPREEQFNSTYRVVSVLTVLHQDWLNGKEYKCKVSNKGLPSSIEKTISKAKGQPREPQVCTLPPSQEEMTKNQVSLSCAVKGFYPSDIAVEWESNGQPENNYKTTPPVLDSDGSFFLVSRLTVDKSRWQEGNVFSCSVMHEALHNHYTQKSLSLSLGK | 400 pM | 100%
